Measured values as given in PMC9704045.
Like-named read-outs stand apart in the source and are kept apart here.

Experiments:
[1] = target: wild-type HexaPro (D614) SARS-CoV-2 spike trimer (SARS-CoV-2); experiment: BLI; Octet Red384; […]; analyte ([…]; HBS-EP+ buffer; 1:1 binding model
[2] = target: wild-type HexaPro (D614) SARS-CoV-2 spike trimer (SARS-CoV-2); experiment: as above; remark: listed apart in the source

“cilgavimab (AZD1061), full-length IgG (antibody)” was tested. Which Kd [1] did it give?
Its Kd is 0.669 nM.

What about the Kd [2] of the same substance?
Its Kd is under 1 pM.
